According to the supplement of paper PMC7125110:
± gives the standard error. Fewer inactive variants are shown than the library holds.

B1: glmS ribozyme (parent)
chain: AUAAAAGCGCCAGAACUACAGAAAUGUAGUUGACGAGGAGGAGGUUUAUCGAAUUUUCGGCGGAUGCCUCCAAA

Assays:
Conditions in all cases: with glucosamine-6-phosphate
glucosamine-6-phosphate [1] = variants of: B1; assay: self-cleavage kobs at 640 uM GlcN6P; higher = faster cleavage; RNA array
Summary of the method: (§1)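 Glucosamine-6-phosphate in HEPES/KCl/Mg(OAc)2 buffer, at 40 μM to 10 mM, was flowed over barcoded ribozyme variants transcribed in situ by E. coli RNA polymerase on sequenced MiSeq chips. Tracking was through a hybridised Cy3 probe at 37 °C. kobs, kcat and KM came from exponential decay fits and weighted Michaelis–Menten fits of normalised per-tile medians.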

glucosamine-6-phosphate [2] = variants of: B1; assay: self-cleavage kobs at 2500 uM GlcN6P; higher = faster cleavage; RNA array
Summary of the method: as §1

glucosamine-6-phosphate [3] = variants of: B1; assay: self-cleavage kobs at 10000 uM GlcN6P; higher = faster cleavage; RNA array
Summary of the method: as §1

| Variant | self-cleavage kobs at 640 uM GlcN6P (glucosamine-6-phosphate [1]) [s⁻¹] | self-cleavage kobs at 2500 uM GlcN6P (glucosamine-6-phosphate [2]) [s⁻¹] | self-cleavage kobs at 10000 uM GlcN6P (glucosamine-6-phosphate [3]) [s⁻¹] |
| --- | --- | --- | --- |
| AUAAAAGCGCCAGUACUACAGAAAUGUAGUUGACGUGGAGGAGGUUUAUCGAAUUUUCGGCGGAUGCCGCCAAA [A14U A36U U69G] | 0.000169 ± 6.2e-05 | 0.000194 ± 5.8e-05 | 5.55e-05 ± 1.8e-05 |
| AUAAAAGCGCCAGAGCUACAGAAAUGUAGUUGACGAGGAGGAGGUUUAUCGAAAUUUCGGCGGAUCCCUCCAAA [A15G U54A G66C] | 0.000369 ± 9e-05 | 0.000502 ± 9.7e-05 |  |
| AUAAAAGCGCCAGGACUACAGAAAUGUAGUUGACGAGGAUCAGGUUUAUCGAAUUUUCGGCGGAUGCCUCCAAA [A14G G40U G41C] | 7.7e-05 ± 1.5e-05 | 0.00015 ± 3.4e-05 |  |
| AUAAAAGCGCCAGGACUACAGAAAUGUAGUUAACGAGGAGGAGGUUUAUCGAAUUUUCGAAGGAUGACUUCAAA [A14G G32A G60A C61A C67A C70U] | 0.000302 ± 0.00012 |  |  |
| AUAAAAGCGCCAGGACUACAGAAAUGUAGUAGACGAGGAGAAGGUUUAUCGAAUUUUCGGCGGAUGCCUCUAAA [A14G U31A G41A C71U] | 0.000186 ± 7.9e-05 | 0.000396 ± 0.00011 |  |
| AUAAAAGCGCCAGAAGUACAGAAAUGUAGUUGACGAGGGGGAGGUUUAUCGAAUUUUCGGCGGAUGCCUCAAAA [C16G A39G C71A] | 0.000265 ± 9.1e-05 | 0.000286 ± 0.00013 |  |
| AUAAAAGCGCCAGAAAUACAGAAAUGUAGUCGGAGAGGAGGAGGUUUAUCGUAUUUUCGGCGGAUGCUUCCAAA [C16A U31C A33G C34A A52U C68U] | < 1e-05 |  |  |
| AUAAAAGCGCCAGACUACAAGAAAUGUAGUUGACGGGGAGGAGUUUUAUCGAAUUUUCGGCGGAUGCCUCCAAA [A15C C16U U17A A18C C19A A36G G44U] | < 1e-05 |  |  |
| AUAAAAGCGCCAGGACUACAGAAAUGUAGAUGACGUGGAGGAGGUUUAUCGAAUUUUUGGCGGAUUCCUCCAAA [A14G U30A A36U C58U G66U] | < 1e-05 |  |  |
| AUAAAAGCGCCAGGACUACAGAAAUGUACUUGCCGAGGAGGAGGUUUAUCGAAUUUUCGGCGGAUGCCUCCAAA [A14G G29C A33C] | < 1e-05 |  |  |
| AUAAAAGCGCCAGAGCUACAGAAAUGUAGUUGGCGAGGAGGAGGUUUGUCGAAUUUUCGUCGGAUGCCUCCAAA [A15G A33G A48G G60U] | < 1e-05 |  |  |
| AUAAAAGCGCCAGAGCUACAGAAAUGUAGUUGACGAGGAGGAGGUUUUUCGAAAUUUCGGCGGAUGCCUCCAAA [A15G A48U U54A] | 0.000159 ± 3.2e-05 | 0.000106 ± 4.2e-05 |  |
| AUAAAAGCGCCAGGACUACAGAAAUGUAGUUGACGAGGAGGAUGUUUAUCGAAUUUUCGGCGUAUGCCUACAAA [A14G G43U G63U C70A] | < 1e-05 | < 1e-05 |  |
| AUAAAAGCGCCAGAUCUACAGAAAUGUAGUUGAGGAGGAGGAGGUUUAUCGAAUUUUCGGCGAAUGCCUCCAAA [A15U C34G G63A] | < 1e-05 |  |  |
| AUAAAAGCGCCAGAAAUACAGAAAUGUAGUUAACGAGGAGGAGGUUUAUCGAAUUUUCGGCGGAUGCCUGCAAA [C16A G32A C70G] | 7.42e-05 ± 3e-05 |  | 0.000127 ± 3.4e-05 |
| AUAAAAGCGCCAGAGCUACAGAAAUGUAGUUGACGAGGAGGAGGUUUAUCGAAUUUUAGGCGGAUGCCGCCAAA [A15G C58A U69G] | 0.000122 ± 3.7e-05 | 8.9e-05 ± 2.5e-05 |  |
| AUAAAAGCGCCAGAAGUACAGAAAUGUAGUUGACGAGGAGGAGGUUUGUCGAAUUGUCAGCGGAUGCCUCCAAA [C16G A48G U56G G59A] | < 1e-05 |  |  |
| AUAAAAGCGCCAGACCUACAGAAAUGUAGUUGCCGCGGAGGAGGUUUAUCGAAUUUUCGGCGGAUGCCUCCAAA [A15C A33C A36C] | < 1e-05 |  |  |
| AUAAAAGCGCCAGACCUACAGAAAUGUAGCGGACGAGGAGGAGGUUUAUCGAAUUUUCGGCGGAUGCCGCCAAA [A15C U30C U31G U69G] | 0.00017 ± 4.8e-05 |  |  |
| AUAAAAGCGCCAGACCUACAGAAAUGUAGUUGACGAGGAGGAGGUUUUGCGAAUUUUCGGCUGAUGCCUCCAAA [A15C A48U U49G G62U] | < 1e-05 |  |  |
| AUAAAAGCGCCAGGAUUACAGAAAUGUAGUUGACGAGGAGAAGGUUUAUCGAAUUUUCGGCGGAUGCCUCCAAA [A14G C16U G41A] | 0.00178 ± 0.00032 | 0.0028 ± 0.00078 |  |
| AUAAAAGCGCCAGUAAUACAGAAAUGUAGUUGACGAGGAGGAGGUUUAUCGAAUUUUCGGCGGAUACCUCCAAA [A14U C16A G66A] | 3.92e-05 ± 1.7e-05 | 0.000107 ± 2.6e-05 |  |
| AUAAAAGCGCCAGGACUACAGAAAUGUAAUUUACGAGGAGGAGGUUUAUCGAAUUUUCGGCGGAUGCCUCCAAA [A14G G29A G32U] | 0.000272 ± 0.0001 | 0.000568 ± 0.00014 |  |
| AUAAAAGCGCCAGAUCUACAGAAAUGUAGUUGACGAGGAGUAGGUUUAUCGAAUUUUCGGCGGAUUCCUUCAAA [A15U G41U G66U C70U] | 4.78e-05 ± 1.4e-05 |  |  |

| Variant | self-cleavage kobs at 640 uM GlcN6P (glucosamine-6-phosphate [1]) [s⁻¹] | self-cleavage kobs at 2500 uM GlcN6P (glucosamine-6-phosphate [2]) [s⁻¹] | self-cleavage kobs at 10000 uM GlcN6P (glucosamine-6-phosphate [3]) [s⁻¹] |
| --- | --- | --- | --- |
| AUAAAAGCGCCAGGACUACAGAAAUGUAGUUGAUGAGGAGGAGGUUUAUCGCAUUUUCGGCGGAUGCUUUCAAA [A14G C34U A52C C68U C70U] | 8.57e-05 ± 4.2e-05 |  |  |
| AUAAAAGCGCCAGUCCUACAGAAAUGUAGUUGCCGAGGAGGAGGUUUAUCGAAUUUUCGGGGGAGGCCUCCAAA [A14U A15C A33C C61G U65G] | < 1e-05 | < 1e-05 |  |
| AUAAAAGCGCCAGGACUACAGAAAUGUAGUUGUCGAGGAGGAGUUUCAUCGAAUUUUCGGCGUAUGCCUCCAAA [A14G A33U G44U U47C G63U] | < 1e-05 | < 1e-05 | < 1e-05 |
| AUAAAAGCGCCAGUUCUACAGAAAUGUACUUGACGAGGAGGAGGUUUAUCGAAUUUUCGGCGGAUGUCUGCAAA [A14U A15U G29C C67U C70G] | 0.00266 ± 0.001 |  |  |
| AUAAAAGCGCCAGAUCUACAGAAAUGUAGUUGACUAGGAGGAGGUUUAUCGAAUUUUCAGCGGAUGCCUCCAAA [A15U G35U G59A] | < 1e-05 |  |  |
| AUAAAAGCGCCAGUACUACAGAAAUGUAGUUGACAAGGACGAGGUUUAUCGAAUUUUCGGCGGAUGCCUCCAAA [A14U G35A G40C] | < 1e-05 |  |  |
| AUAAAAGCGCCAGCACUACAGAAAUGUAGUUGACGAGGAGGAGGUUUAUCGAAUUUUCGGCGGAAGCCUUCAAA [A14C U65A C70U] | 0.000125 ± 3.2e-05 |  |  |
| AUAAAAGCGCCAGGACUACAGAAAUGUAUUUGACGAGCAGGAGGUUUAUCGAAUUCUCGGCGGAUGCCUCCAAA [A14G G29U G38C U56C] | < 1e-05 |  |  |
| AUAAAAGCGCCAGGACUACAGAAAUGUAGUUCACGAGGAGGAGGAUUAUCGAAUUUUCGGCGGAUGCCUGCAAA [A14G G32C U45A C70G] | < 1e-05 |  |  |
| AUAAAAGCGCCAGAAGUACAGAAAUGUAGUUGUCGAUGAGGAGGUUUAUCGAAUUUUCGGCGGAUGCGUCUAAA [C16G A33U G37U C68G C71U] | 8.54e-05 ± 3.1e-05 |  |  |
| AUAAAAGCGCCAGAUCUACAGAAAUGUAGUUGACGAGGAGGAGGUUUAUCGAAUCUUCGGCGGAUGCCUUCAAA [A15U U55C C70U] | 4.5e-05 ± 2.2e-05 | 9.45e-05 ± 3.3e-05 |  |
| AUAAAAGCGCCAGAGGUACAGAAAUGUAGUUGACGAGGAGGAGGUGUAUCGAAUUUUCGGCGGAUGCCUCCAAA [A15G C16G U46G] | 9.78e-05 ± 2.8e-05 | 0.000248 ± 9.3e-05 |  |
| AUAAAAGCGCCAGGACUACAGAAAUGUAGUUCACGAGGAGGAGGUUUAUCGAAUUUUCGGCGCAUUCCGCCAAA [A14G G32C G63C G66U U69G] | < 1e-05 | < 1e-05 |  |
| AUAAAAGCGCCAGUACUACAGAAAUGUAGUUGACGAGGAGAAGGAUUAUCGAAUUUUCGGCGGAUGCCUCCAAA [A14U G41A U45A] | 6.25e-05 ± 2.9e-05 | 0.000195 ± 5.4e-05 |  |
| AUAAAAGCGCCAGAGAUACAGAAAUGUAGCUGACGAGGAGGAGGUUUAUCGAAUUUUCGGCGGAUGCCUCCAAA [A15G C16A U30C] | 0.000332 ± 0.00012 | 0.00063 ± 0.00023 |  |
| AUAAAAGCGCCAGGACUACAGAAAUGUAGUUGAUGAGGAGGAGGUUUAUCGAAUUUUCGGCGGAUGCCUCCAAA [A14G C34U] | < 1e-05 |  | < 1e-05 |
| AUAAAAGCGCCAGAUCUACAGAAAUGUAGUUGGCGAGGAGGAGGUUUAUCGAAUUUUCGGCGGGUGACUAUAAA [A15U A33G A64G C67A C70A C71U] | 9.67e-05 ± 3.1e-05 |  |  |
| AUAAAAGCGCCAGACCUACAGAAAUGUACUUGACGAGGAGGAGGUUUAUCGAAUUUUCGUCGGAUGCCUCCAAA [A15C G29C G60U] | < 1e-05 | < 1e-05 | < 1e-05 |
| AUAAAAGCGCCAGAGCUACAGAAAUGUAGUUGACGAGGAGGAGGUUGAUCGAAUGUUCGGCGGAUGCCUACAAA [A15G U47G U55G C70A] | 0.000102 ± 1.7e-05 |  |  |
| AUAAAAGCGCCAGACCUACAGAAAUGUAGUUAACGAGUAGGAGGUUUAUCGAAUUUUCGGCGGAUGCCUCCAAA [A15C G32A G38U] | < 1e-05 |  |  |
| AUAAAAGCGCCAGACCUACAGAAAUGUAGUUGACGAGGAGGAGGGUUAUCGAAUUCUAGGCGGAUGGAUCCAAA [A15C U45G U56C C58A C67G C68A] | 8.64e-05 ± 2.9e-05 |  |  |
| AUAAAAGCGCCAGGACUACAGAAAUGUAGUUGACGAGGAGGAGGUUUAUCGUAUUUUCGGCGGAUGUCUCCAAA [A14G A52U C67U] | 7.45e-05 ± 1.3e-05 | 0.00014 ± 3.1e-05 |  |
| AUAAAAGCGCCAGACCUACAGAAAUGUAGUUGUCGAGGAAGAGGUUUAUCGAAUUUUCGGCGGAUGCCUCCAAA [A15C A33U G40A] | < 1e-05 |  |  |
| AUAAAAGCGCCAGAAGUACAGAAAUGUAGUUGACCAGGAGGAGGUUUGUCGAAUUUCCGGCAGAUGACACCAAA [C16G G35C A48G U57C G62A C67A U69A] | < 1e-05 | < 1e-05 | < 1e-05 |
